Source: US20250084176A1 (F STAR BETA, published 2025)

Assays:
cCD137-mFc-Avi = target: T1, cCD137-mFc-Avi (cynomolgus; mouse, one biotin on the Avi sequence of each monomer (BirA); unbiotinylated in the SPR of Example 5.6); experiment: SPR (Biacore), mAb2 captured by anti-human Fab, antigen in solution, 1:1 Langmuir
T1 construct: also called cyno CD137-mFc-Avi; dimeric cynomolgus CD137; not shown: mouse IgG2a Fc domain (mIgG2a Fc)
T1 chain: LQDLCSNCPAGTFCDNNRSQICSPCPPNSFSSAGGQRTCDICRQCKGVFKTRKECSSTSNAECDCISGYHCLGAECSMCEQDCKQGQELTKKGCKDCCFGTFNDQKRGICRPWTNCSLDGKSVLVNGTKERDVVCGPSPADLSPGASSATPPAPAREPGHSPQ
Procedure: (§1) An anti-human Fab capture antibody was immobilised on all four flow cells of a CM5 series S chip (GE Healthcare #BR-1005-30) to an average surface density of 6000 RU following the manufacturer's recommendations (GE Healthcare, human Fab capture Kit, #28958325). IEach mAb² was captured to approximately 150 RU by injecting a 3 μg/ml solution of mAb² diluted in HBS-EP+ buffer (GE Healthcare #BR1006-69) for 60 seconds at 30 μl/min. Then different concentrations of human, cyno or mouse CD137 antigen (unbiotinylated human, cyno or mouse CD137-mFc-Avi or human CD137-Avi-His) in HBS-EP+ buffer were flowed over the chip for 3 min at 60 μl/min and then allowed to dissociate for 10 minutes. After each antigen concentration the chip was regenerated by infecting 10 mM glycine pH 2.1 at a flow rate of 30 μl/min for 30 seconds. Buffer HBS-EP+ was injected before the highest concentration of antigen and after the lowest concentration of antigen for reference subtraction, and one of the concentrations at random was repeated twice. The binding kinetics were fit with a 1:1 Langmuir model to generate equilibrium binding constants (KD) for each sample. Data analysis was performed with BiaEvaluation software version 3.2.

hCD137-mFc-Avi = target: T2, hCD137-mFc-Avi (human; mouse, UniProt Q07011 24-186, one biotin on the Avi sequence of each monomer (BirA); unbiotinylated in the SPR of Example 5.6); experiment: as above
T2 construct: Made in-house in HEK293-6E; also called human CD137-mFc-Avi; dimeric human CD137; not shown: mouse IgG2a Fc domain (mIgG2a Fc)
T2 sequence (Q07011 24-186): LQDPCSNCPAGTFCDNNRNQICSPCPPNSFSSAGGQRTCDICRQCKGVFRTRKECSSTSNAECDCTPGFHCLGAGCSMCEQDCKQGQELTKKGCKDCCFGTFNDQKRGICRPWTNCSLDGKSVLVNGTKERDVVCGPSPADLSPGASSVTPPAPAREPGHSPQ
Procedure: as §1

[1] = target: T3, human CD137, full length, on cells (human, UniProt Q07011 24-255); experiment: cell-based or functional assay
T3 sequence (Q07011 24-255): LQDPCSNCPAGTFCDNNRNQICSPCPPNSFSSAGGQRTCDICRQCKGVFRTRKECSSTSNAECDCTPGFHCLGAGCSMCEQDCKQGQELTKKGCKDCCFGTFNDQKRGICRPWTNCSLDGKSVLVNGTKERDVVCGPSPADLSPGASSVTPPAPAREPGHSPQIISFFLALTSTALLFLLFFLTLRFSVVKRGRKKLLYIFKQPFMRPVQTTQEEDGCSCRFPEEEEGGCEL

[2] = target: T3, human CD137, full length, on cells; experiment: flow cytometry on CD137int DO11.10 cells (ABC 404,597), anti-human IgG-PE detection, geometric mean PE
Procedure: (§2) A range of DO11.10 cells expressing different levels of CD137 were produced as described in Example 3.5. To determine the relative expression of CD137 in each cell line, the antibody binding capacity (ABC) was determined according to manufacturer's protocol (Quantum™ Simply Cellular® #816 Bangs Labs).
(§3) All antibodies tested were diluted in FACS buffer in 120 μl. DO11.10 cells were then centrifuged, supernatant removed and cells resuspended in 100 μl of each antibody dilution and incubated at 4° C. for 45 min. Cells were washed twice by centrifugation with 150 μl FACS buffer, resuspended in 100 μl containing goat anti-human IgG (γ-chain specific) F (ab′) 2 fragment-R-Phycoerythrin antibody (Sigma, P8047) diluted 1:1000 in FACS buffer and incubated at 4° C. for 45 min. The cells were washed once with 150 μl FACS buffer and then with 150 μl DPBS, resuspended in 150 μl DPBS containing DAPI (Biotium, 40043) at 1:10.000 and read on the BDCantoll or iQue (Intellicyt). Data was analysed using FlowJo v10 to determine the signal geometric mean for PE for live cells in each well.

[3] = target: T3, human CD137, full length, on cells; experiment: flow cytometry on CD137high DO11.10 cells (ABC 1,206,283), anti-human IgG-PE detection, geometric mean PE
Procedure: as §2, §3

[4] = target: T3, human CD137, full length, on cells; experiment: flow cytometry on CD137int/low DO11.10 cells (ABC 143,065), anti-human IgG-PE detection, geometric mean PE
Procedure: as §2, §3

[5] = target: T3, human CD137, full length, on cells; experiment: cell-based or functional assay; remark: listed apart in the source
[6] = target: T3, human CD137, full length, on cells; experiment: cell-based or functional assay; remark: listed apart in the source
[7] = target: T3, human CD137, full length, on cells; experiment: cell-based or functional assay; remark: listed apart in the source
[8] = target: T3, human CD137, full length, on cells; experiment: flow cytometry on CD137low DO11.10 cells (ABC 14,208), anti-human IgG-PE detection, geometric mean PE
Procedure: as §2, §3

B1: FS22-172/HelD1.3 (bispecific antibody, human IgG1, kappa)
heavy: QVQLQESGPGLVRPSQTLSLTCTVSGSTFSGYGVNWVRQPPGRGLEWIGMIWGDGNTDYNSALKSRVTMLVDTSKNQFSLRLSSVTAADTAVYYCARERDYRLDYWGQGSLVTVSSASTKGPSVFPLAPSSKSTSGGTAALGCLVKDYFPEPVTVSWNSGALTSGVHTFPAVLQSSGLYSLSSVVTVPSSSLGTQTYICNVNHKPSNTKVDKKVEPKSCDKTHTCPPCPAPELLGGPSVFLFPPKPKDTLMISRTPEVTCVVVDVSHEDPEVKFNWYVDGVEVHNAKTKPREEQYNSTYRVVSVLTVLHQDWLNGKEYKCKVSNKALPAPIEKTISKAKGQPREPQVYTLPPSRDELRKYYPPYNQVSLTCLVKGFYPSDIAVEWESNGQPENNYKTTPPVLDSDGSFFLYSKLTVGADRWLEGNVFSCSVMHEALHNHYTQKSLSLSPG
light: DIQMTQSPASLSASVGETVTITCRASGNIHNYLAWYQQKQGKSPQLLVYNAKTLADGVPSRFSGSGSGTQYSLKINSLQPEDFGSYYCQHFWSTPRTFGGGTKLEIKRTVAAPSVFIFPPSDEQLKSGTASVVCLLNNFYPREAKVQWKVDNALQSGNSQESVTEQDSKDSTYSLSSTLTLSKADYEKHKVYACEVTHQGLSSPVTKSFNRGEC
notes: Mock mAb^2, IgG1 without LALA
Kd (cCD137-mFc-Avi): 203 nM
Kd (hCD137-mFc-Avi): 52 nM
NF-kB luciferase reporter (HEK.FRT.luc.hCD137), signal with against without Protein L [1]: ≥ 10 fold

B2: FS22-172-003-AA/HelD1.3 (bispecific antibody, human IgG1, kappa, L234A L235A)
heavy: QVQLQESGPGLVRPSQTLSLTCTVSGSTFSGYGVNWVRQPPGRGLEWIGMIWGDGNTDYNSALKSRVTMLVDTSKNQFSLRLSSVTAADTAVYYCARERDYRLDYWGQGSLVTVSSASTKGPSVFPLAPSSKSTSGGTAALGCLVKDYFPEPVTVSWNSGALTSGVHTFPAVLQSSGLYSLSSVVTVPSSSLGTQTYICNVNHKPSNTKVDKKVEPKSCDKTHTCPPCPAPEAAGGPSVFLFPPKPKDTLMISRTPEVTCVVVDVSHEDPEVKFNWYVDGVEVHNAKTKPREEQYNSTYRVVSVLTVLHQDWLNGKEYKCKVSNKALPAPIEKTISKAKGQPREPQVYTLPPSRDELPYIIPPYNQVSLTCLVKGFYPSDIAVEWESNGQPENNYKTTPPVLDSDGSFFLYSKLTVGADRWLEGNVFSCSVMHEALHNHYTQKSLSLSPG
light: DIQMTQSPASLSASVGETVTITCRASGNIHNYLAWYQQKQGKSPQLLVYNAKTLADGVPSRFSGSGSGTQYSLKINSLQPEDFGSYYCQHFWSTPRTFGGGTKLEIKRTVAAPSVFIFPPSDEQLKSGTASVVCLLNNFYPREAKVQWKVDNALQSGNSQESVTEQDSKDSTYSLSSTLTLSKADYEKHKVYACEVTHQGLSSPVTKSFNRGEC
notes: Mock mAb^2, IgG1 with LALA
EC50 (read off the curve) [2]: ~0.5 nM
EC50 (read off the curve) [3]: ~0.5 nM
EC50 (read off the curve) [4]: ~0.8 nM

B3: G1-AA/20H4.9 (antibody, V domains shown)
VH: QVQLQQWGAGLLKPSETLSLTCAVYGGSFSGYYWSWIRQSPEKGLEWIGEINHGGYVTYNPSLESRVTISVDTSKNQFSLKLSSVTAADTAVYYCARDYGPGNYDWYFDLWGRGTLVTVSS
VL: EIVLTQSPATLSLSPGERATLSCRASQSVSSYLAWYQQKPGQAPRLLIYDASNRATGIPARFSGSGSGTDFTLTISSLEPEDFAVYYCQQRSNWPPALTFGGGTKVEIKR
EC50 (read off the curve) [2]: ~0.1 nM
IL-2 release, human CD137 DO11.10 T cell activation assay, Protein L: +XL EC50 [5]: 0.82 nM
IL-2 release, DO11.10.hCD137 T cell activation assay: EC50 [6]: 0.26 nM
EC50 (read off the curve) [4]: ~0.1 nM
hIL-2 release, primary human CD8+ T cells, 20H4.9 (row without XL): EC50 [7]: 0.89 nM
hIL-2 release, primary human CD8+ T cells, 20H4.9 + XL (anti-hCH2): EC50 [7]: 0.5 nM
EC50 (read off the curve) [8]: ~0.1 nM

B4: G1-AA/HelD1.3 (antibody, human IgG1, kappa, L234A L235A, V domains shown)
VH: QVQLQESGPGLVRPSQTLSLTCTVSGSTFSGYGVNWVRQPPGRGLEWIGMIWGDGNTDYNSALKSRVTMLVDTSKNQFSLRLSSVTAADTAVYYCARERDYRLDYWGQGSLVTVSS
VL: DIQMTQSPASLSASVGETVTITCRASGNIHNYLAWYQQKQGKSPQLLVYNAKTLADGVPSRFSGSGSGTQYSLKINSLQPEDFGSYYCQHFWSTPRTFGGGTKLEIKR
notes: Anti-hen egg lysozyme human IgG1 with the LALA mutation; also called G1-AA/HeID1.3; G1AA/HeID1.3 mAb (with LALA)
binding result [8]: no binding
